We go through 2 molecules from article PMC10380293 (International Journal of Molecular Sciences, 2023).

The target of assay [1] is mScarlet-I-PCNA^C148S (human, UniProt P12004 1-261, C148S). Nature of the assay: FRET or BRET; 1 µM p15-mNeonGreen (donor) with 0-3.09 µM mScarlet-I-PCNA (acceptor, protomer concentration) in PBS with 1 mM DTT, 37 °C for 1 h, 384 well plate; sensitized emission by the three-channel method, control mNeonGreen/mScarlet-I-PCNA subtracted; apparent for C148S. Particulars: both partners purified. On the technique in general: BRET reads energy transfer from a luciferase to a nearby fluorophore.
Chain of mScarlet-I-PCNA^C148S (P12004 whole entry C148S): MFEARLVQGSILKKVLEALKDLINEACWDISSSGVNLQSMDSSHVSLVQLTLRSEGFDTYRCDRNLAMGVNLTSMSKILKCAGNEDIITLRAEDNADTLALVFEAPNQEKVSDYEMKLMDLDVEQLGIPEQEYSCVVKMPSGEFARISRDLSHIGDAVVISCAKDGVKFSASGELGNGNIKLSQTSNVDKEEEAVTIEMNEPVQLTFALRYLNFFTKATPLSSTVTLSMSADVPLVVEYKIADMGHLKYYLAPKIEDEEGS

In assay [2] the target is mScarlet-I-PCNA (human, UniProt P12004 1-261). The assay can be described thus: FRET or BRET; competition: 1 µM p15-mNeonGreen and 1 µM mScarlet-I-PCNA with varying inhibitor (0-100 µM p15^51-70, 0-20 µM unlabeled PCNA), 1 h at 37 °C, PBS with 1 mM DTT; sensitized emission; Ki by the Cheng-Prusoff equation. The settings on record: both partners purified.
Chain of mScarlet-I-PCNA (P12004 whole entry): as the sequence (P12004 whole entry C148S) above, with S148C counted along it

Several values for one entry are separate records, joined by “and”; a condition that tells them apart may be missing. Equal values may be shown once.

B1: p15-mNeonGreen (natural protein, UniProt Q15004 1-111, looked up)
chain: MVRTKADSVPGTYRKVVAARAPRKVLGSSTSATNSTSVSSRKAENKYAGGNPVCVRPTPKWQKGIGEFFRLSPKDSEKENQIPEEAGSSGLGKAKRKACPLQPDHTNDEKE
Consider B1, for which, in assay [1], the Kd worked out at 3.09 µM.

One may read the IC50 as the concentration that inhibits the measured activity by half. In general, Ki refers to a dissociation constant, usually derived from enzyme kinetics or from competition with a known ligand. NPVCVRPTPKWQKGIGEFFR [peptide p15^51–70]: in assay [2], the IC50 is 9.81 µM; the Ki is 2.94 µM and 2.99 µM.
